Assay results published in PMC4381330, “Identification of a novel selective agonist of PPARγ with no promotion of adipogenesis and less inhibition of osteoblastogenesis” (Scientific Reports, 2015).

Experiments:
[1] = biological target: GST-fused human PPARγ-LBD (human); assay: AlphaScreen or HTRF; LanthaScreen TR-FRET coregulator peptide assay; serial concentrations of rosiglitazone with GST-PPARγ-LBD, terbium-labeled anti-GST antibody and fluorescein-labeled peptide, 4 h; 520 nm/495 nm ratio
[2] = biological target: GST-fused human PPARγ-LBD (human); assay: AlphaScreen or HTRF; LanthaScreen TR-FRET coregulator peptide assay; serial concentrations of F12016 with GST-PPARγ-LBD, terbium-labeled anti-GST antibody and fluorescein-labeled peptide, 4 h; coactivator data as percent of the maximum of rosiglitazone

| Substance | efficacy (maximum recruitment, % of rosiglitazone), with rosiglitazone [1] | efficacy (maximum recruitment, % of rosiglitazone), with F12016 [2] |
| --- | --- | --- |
| CREB-binding protein (CBP) peptide, fluorescein-labeled | 100% | 10% |
| steroid receptor coactivator (SRC) 1 peptide, fluorescein-labeled | 100% | 26% |
| steroid receptor coactivator (SRC) 3 peptide, fluorescein-labeled | 100% | 23% |
| transcriptional intermediary factor 2 (TIF2) peptide, fluorescein-labeled | 100% | 17% |
